Assay results from PMC10003087, “VRK1 Kinase Activity Modulating Histone H4K16 Acetylation Inhibited by SIRT2 and VRK-IN-1” (International Journal of Molecular Sciences, 2023).

Target: T1, GST-VRK1 (human, UniProt Q99986 1-396)
T1 sequence (looked up): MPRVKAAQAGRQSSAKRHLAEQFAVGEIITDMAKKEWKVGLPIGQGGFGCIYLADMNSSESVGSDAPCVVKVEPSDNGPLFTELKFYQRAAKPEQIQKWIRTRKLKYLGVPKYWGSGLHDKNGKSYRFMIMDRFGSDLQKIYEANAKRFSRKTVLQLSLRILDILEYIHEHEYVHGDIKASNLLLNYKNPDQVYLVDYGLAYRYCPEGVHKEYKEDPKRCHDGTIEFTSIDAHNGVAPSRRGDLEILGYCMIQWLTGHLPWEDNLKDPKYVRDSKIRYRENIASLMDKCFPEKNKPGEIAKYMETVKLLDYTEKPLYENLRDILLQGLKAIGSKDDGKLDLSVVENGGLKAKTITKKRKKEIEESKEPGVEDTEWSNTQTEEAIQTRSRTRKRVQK
Assay: cell-based or functional assay

B1: SIRT2-his (enzyme, human, UniProt Q8IXJ6 1-389, looked up)
chain: MAEPDPSHPLETQAGKVQEAQDSDSDSEGGAAGGEADMDFLRNLFSQTLSLGSQKERLLDELTLEGVARYMQSERCRRVICLVGAGISTSAGIPDFRSPSTGLYDNLEKYHLPYPEAIFEISYFKKHPEPFFALAKELYPGQFKPTICHYFMRLLKDKGLLLRCYTQNIDTLERIAGLEQEDLVEAHGTFYTSHCVSASCRHEYPLSWMKEKIFSEVTPKCEDCQSLVKPDIVFFGESLPARFFSCMQSDFLKVDLLLVMGTSLQVQPFASLISKAPLSTPRLLINKEKAGQSDPFLGMIMGLGGGMDFDSKKAYRDVAWLGECDQGCLALAELLGWKKELEDLVRREHASIDAQSGAGVPNPSTSASPKKSPPPAKDEARTTEREKPQ
In the case of B1, the “IC50 of SIRT2 for inhibition of VRK1 autophosphorylation (in vitro kinase assay, dose-dependent)” value is reported as 190 nM and the “IC50 of SIRT2 for inhibition of the phosphorylation of histone H3 by VRK1 (in vitro kinase assay, dose-dependent)” value is reported as 150 nM.
